One assay concerns the target T1, hCD47 (ECD)-Fc (Homo sapiens, UniProt Q08722).
T1 construct: human CD47 ectodomain (ECD), residues 20-136; Cloned into a pFUSE vector; also called human CD47 (ECD)-Fc; recombinant hCD47 antigen
Briefly: ELISA; 5 μg/mL CD47 (ECD)-Fc proteins coated overnight at 4 °C, 1% BSA block, 10 μg/mL Nb for 1 h at room temperature; mouse anti-HA and anti-mouse IgG-alkaline phosphatase, A405. Conditions: both partners purified.

A further assay deals with T2, mouse CD47 (ECD)-Fc (Mus musculus, UniProt Q61735).
T2 construct: mouse CD47 ectodomain (ECD); source: HEK-293F, purified
The assay is described as above. Conditions: both partners purified.

The next assay has as its target T3, rat CD47 (ECD)-Fc (Rattus norvegicus, UniProt P97829).
T3 construct: rat CD47 ectodomain (ECD); source: HEK-293F, purified
Described as above. Conditions: both partners purified.

For assay [1], the target named is T4, human CD47 on the surface of cells (human (endogenous in Raji), UniProt Q08722).
T4 construct: human CD47 (integrin-associated protein) on the cell surface; also called hCD47; CD47 expressed on Raji cells; source: endogenous, on Raji cells; endogenous, on human RBCs of healthy donors
Briefly: flow cytometry on cells; competition: Raji cells co-incubated with HuNb1-biotin or Rituximab-biotin and unlabelled antibody; streptavidin-PE. Conditions: one partner purified.

T4 sequence (Q08722 19-323): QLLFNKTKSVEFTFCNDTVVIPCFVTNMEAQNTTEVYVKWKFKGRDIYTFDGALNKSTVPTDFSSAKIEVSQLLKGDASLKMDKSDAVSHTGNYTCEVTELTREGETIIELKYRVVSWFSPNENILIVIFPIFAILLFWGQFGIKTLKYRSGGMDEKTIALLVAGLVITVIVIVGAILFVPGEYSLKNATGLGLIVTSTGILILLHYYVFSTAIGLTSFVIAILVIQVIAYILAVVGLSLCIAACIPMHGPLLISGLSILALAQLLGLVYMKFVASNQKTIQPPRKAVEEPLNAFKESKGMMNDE
T1 sequence (Q08722 20-136): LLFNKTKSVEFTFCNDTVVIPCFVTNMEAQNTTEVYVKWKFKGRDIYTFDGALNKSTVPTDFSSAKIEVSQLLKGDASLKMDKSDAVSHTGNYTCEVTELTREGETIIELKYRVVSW

B1: HuNb1 (VHH)
VHH: QVQLQESGGGLVQPGGSLRLSCAASGYAYTSDCMGWFRQTPGKGLEGVALIYTPGNSTNYADSVKGRFTISQDNSKSTVYLQMNSLRAEDTAMYYCAARRGACSLRLPFFYWGQGTLVTVSS
notes: as the VHH of m1; The nanobody alone as used in the ELISA, detected by an anti-HA antibody; also called CD47 Nb; source: E. coli WK6 (pMECS), purified (Ni-sepharose)
Turning to B1, the binding result with hCD47 (ECD)-Fc is listed as “binds”; with mouse CD47 (ECD)-Fc, “no binding (tested: 10 μg/mL)”; in the assay with rat CD47 (ECD)-Fc it was “no binding (tested: 10 μg/mL)”.

B2: HuNb1-biotin (VHH)
VHH: B1 VHH
notes: as the VHH of m1
B2: the binding result in assay [1] is “binds”.

The values are drawn from publication PMC6956557, “Preclinical development of a novel CD47 nanobody with less toxicity and enhanced anti-cancer therapeutic potential” (Journal of Nanobiotechnology, 2020).
